We go through 2 substances from paper PMC4315244.

The target of experiment [1] is Nup82-Flag-TEV-ProtA (S. cerevisiae) (UniProt P40368). Briefly: AUC + SEC.
Experiment [2] deals with Nup82 (of the Nup82–Nup159tail–Flag-Nsp1C complex) (S. cerevisiae) (UniProt P40368). The experiment can be described thus: SEC-MALS. For orientation: SEC sorts molecules by how far they enter the pores of the column.
Nup82 (of the Nup82–Nup159tail–Flag-Nsp1C complex) (S. cerevisiae), sequence (P40368 whole entry, one chain of several): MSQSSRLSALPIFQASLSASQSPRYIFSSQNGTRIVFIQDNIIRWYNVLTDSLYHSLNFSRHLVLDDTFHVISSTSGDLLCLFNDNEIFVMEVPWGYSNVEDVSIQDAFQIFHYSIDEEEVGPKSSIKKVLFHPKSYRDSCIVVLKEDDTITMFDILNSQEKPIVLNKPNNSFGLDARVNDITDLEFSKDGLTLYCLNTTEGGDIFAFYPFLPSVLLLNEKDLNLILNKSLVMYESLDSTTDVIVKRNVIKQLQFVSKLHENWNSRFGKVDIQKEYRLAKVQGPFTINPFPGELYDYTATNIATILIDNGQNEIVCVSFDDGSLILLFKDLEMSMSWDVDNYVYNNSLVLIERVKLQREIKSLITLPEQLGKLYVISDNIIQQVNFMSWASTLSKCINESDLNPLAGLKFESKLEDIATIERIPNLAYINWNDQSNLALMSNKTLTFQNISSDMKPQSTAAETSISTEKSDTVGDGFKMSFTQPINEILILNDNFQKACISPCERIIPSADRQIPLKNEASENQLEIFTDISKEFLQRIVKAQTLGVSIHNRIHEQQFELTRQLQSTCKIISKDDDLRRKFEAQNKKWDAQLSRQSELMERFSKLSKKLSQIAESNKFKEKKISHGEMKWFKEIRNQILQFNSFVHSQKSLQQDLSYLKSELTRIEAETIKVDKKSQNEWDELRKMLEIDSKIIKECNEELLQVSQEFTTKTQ

Nup159 tail (domain or fragment), sequence (P40477 whole entry, the tested form may be a part): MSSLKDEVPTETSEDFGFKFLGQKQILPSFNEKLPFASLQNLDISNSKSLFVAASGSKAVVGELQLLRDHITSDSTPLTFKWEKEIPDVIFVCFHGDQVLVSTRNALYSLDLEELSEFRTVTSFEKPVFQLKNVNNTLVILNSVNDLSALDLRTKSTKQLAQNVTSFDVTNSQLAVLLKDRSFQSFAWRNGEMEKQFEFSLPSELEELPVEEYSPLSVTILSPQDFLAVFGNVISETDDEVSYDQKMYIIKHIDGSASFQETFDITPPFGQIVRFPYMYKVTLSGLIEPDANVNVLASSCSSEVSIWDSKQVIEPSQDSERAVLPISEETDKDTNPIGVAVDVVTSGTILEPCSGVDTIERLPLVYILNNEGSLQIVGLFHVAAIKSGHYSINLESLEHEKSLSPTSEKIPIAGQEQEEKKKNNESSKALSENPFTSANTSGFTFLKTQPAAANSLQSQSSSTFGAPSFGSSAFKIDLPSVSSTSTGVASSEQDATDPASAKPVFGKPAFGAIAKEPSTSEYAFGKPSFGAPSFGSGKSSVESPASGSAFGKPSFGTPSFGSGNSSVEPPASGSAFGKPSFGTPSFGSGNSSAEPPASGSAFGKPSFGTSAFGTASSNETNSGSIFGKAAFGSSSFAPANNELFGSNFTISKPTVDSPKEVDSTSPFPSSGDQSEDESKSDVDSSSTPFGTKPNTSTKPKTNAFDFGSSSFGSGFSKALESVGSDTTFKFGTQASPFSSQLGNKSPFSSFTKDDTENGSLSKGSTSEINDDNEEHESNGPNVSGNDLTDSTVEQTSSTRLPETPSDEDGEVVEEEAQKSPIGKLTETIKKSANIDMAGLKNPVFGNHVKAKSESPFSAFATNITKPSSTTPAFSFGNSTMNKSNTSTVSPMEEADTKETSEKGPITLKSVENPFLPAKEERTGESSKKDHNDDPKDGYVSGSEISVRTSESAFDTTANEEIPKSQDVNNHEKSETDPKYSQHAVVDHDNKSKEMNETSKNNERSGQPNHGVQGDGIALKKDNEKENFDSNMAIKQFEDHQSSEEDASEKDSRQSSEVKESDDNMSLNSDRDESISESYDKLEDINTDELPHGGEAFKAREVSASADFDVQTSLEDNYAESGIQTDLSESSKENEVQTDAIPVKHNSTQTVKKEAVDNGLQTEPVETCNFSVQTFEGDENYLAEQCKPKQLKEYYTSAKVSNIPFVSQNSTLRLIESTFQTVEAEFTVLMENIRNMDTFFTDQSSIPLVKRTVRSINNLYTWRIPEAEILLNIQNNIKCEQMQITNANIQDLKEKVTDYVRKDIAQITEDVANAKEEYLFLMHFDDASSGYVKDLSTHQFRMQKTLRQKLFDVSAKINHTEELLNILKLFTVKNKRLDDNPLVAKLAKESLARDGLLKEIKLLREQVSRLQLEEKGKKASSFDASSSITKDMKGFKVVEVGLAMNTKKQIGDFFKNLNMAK
Nup82-Flag-TEV-ProtA, sequence (P40368 whole entry): as the sequence (P40368 whole entry, one chain of several) above

As for “Nup82-Flag-TEV-ProtA (from UniProt P40368 1-713) (natural protein; other documents disagree on this pair)”, the stoichiometry N (commonly a count of units in the complex or per binding partner) in experiment [1] was determined as 2.
In experiment [2], Nup159 tail (domain or fragment) yielded a stoichiometry N of 1.
